Biological target: LecB-biotin (Pseudomonas aeruginosa lectin LecB, biotinylated) (Pseudomonas aeruginosa) (UniProt Q9HYN5)
Assay: pull-down; LecB-biotin applied basolaterally to polarized filter-grown MDCK cells; cells lysed; LecB-biotin-receptor complexes precipitated with streptavidin beads; β1-integrin probed by Western blot in precipitate and supernatant

## β1-integrin (glycosylated, endogenous in MDCK cells) (receptor)
  percent of total β1-integrin extracted: 75%
